Test results as given in patent publication US20180071366A1.
Blank lines part the entries; values can stand above or below the binder they belong to. Numbered stars: 1 amine (or outer) side, 2 acyl side, 3 side chain; on linkers, the order of the positions; unused ones are H or OH. Bridge positions count the residues as written; N and C are the ends. Square brackets hold non-standard residues; d marks the D form. * marks the point of attachment. C20 diacid = O=C(O)CCCCCCCCCCCCCCCCCCC(=O)*; γGlu = O=C(O)[C@H](CCC(=O)[*:2])N[*:1]; Hyp = O=C(O)[C@@H]1C[C@@H](O)CN1; NMeI = CC[C@H](C)[C@H](NC)C(=O)O; Aad = N[C@@H](CCCC(=O)O)C(=O)O; Sar = CNCC(=O)O

How the values were obtained:
[1] = biological target: recombinant human amylin 3 receptor (hAMYR3) (human), P30988; assay: cell-based or functional assay
Sequence of recombinant human amylin 3 receptor (hAMYR3) (human), P30988 (P30988 25-474, chain 1 of 2): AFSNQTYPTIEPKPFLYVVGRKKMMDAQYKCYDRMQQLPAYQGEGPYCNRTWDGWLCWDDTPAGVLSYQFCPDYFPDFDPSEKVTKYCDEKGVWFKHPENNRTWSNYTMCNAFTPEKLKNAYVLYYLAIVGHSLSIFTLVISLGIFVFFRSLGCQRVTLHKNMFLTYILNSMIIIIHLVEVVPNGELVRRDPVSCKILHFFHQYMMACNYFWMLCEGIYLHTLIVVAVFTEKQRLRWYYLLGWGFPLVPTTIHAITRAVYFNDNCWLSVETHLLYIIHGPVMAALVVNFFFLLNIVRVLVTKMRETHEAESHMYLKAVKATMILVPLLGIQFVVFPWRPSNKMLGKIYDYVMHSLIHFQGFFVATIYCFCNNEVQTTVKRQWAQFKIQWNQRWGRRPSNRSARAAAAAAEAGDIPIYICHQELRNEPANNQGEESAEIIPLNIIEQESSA
Sequence of recombinant human amylin 3 receptor (hAMYR3) (human), P30988 (O60896 24-148, chain 2 of 2, further chain): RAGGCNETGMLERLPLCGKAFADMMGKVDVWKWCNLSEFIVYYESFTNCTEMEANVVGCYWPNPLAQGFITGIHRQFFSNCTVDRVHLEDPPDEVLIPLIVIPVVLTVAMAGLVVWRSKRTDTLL

[2] = biological target: recombinant human calcitonin receptor (hCT-R) (human), P30988; assay: cell-based or functional assay
Sequence of recombinant human calcitonin receptor (hCT-R) (human), P30988 (P30988 25-474): as the sequence (P30988 25-474, chain 1 of 2) above

hAMYR3 EC50 [nM] (cAMP formation, 1321N1 cells expressing hAMYR3) [1]: 0.024 nM
hCT-R EC50 [nM] (cAMP formation, 1321N1 cells expressing hCT-R) [2]: 0.094 nM
B1: Compound 39 (peptide)
peptide: {C20 diacid-γGlu}-KDGTATKATQRLA[Aad]FLQRSSF[Sar]A[NMeI]LSSTEVGSNT[Hyp]-NH2
modifications: lactam 2-7
SMILES: CC[C@H](C)[C@@H](C(=O)N[C@@H](CC(C)C)C(=O)N[C@@H](CO)C(=O)N[C@@H](CO)C(=O)N[C@H](C(=O)N[C@@H](CCC(=O)O)C(=O)N[C@H](C(=O)NCC(=O)N[C@@H](CO)C(=O)N[C@@H](CC(N)=O)C(=O)N[C@H](C(=O)N1C[C@H](O)C[C@H]1C(N)=O)[C@@H](C)O)C(C)C)[C@@H](C)O)N(C)C(=O)[C@H](C)NC(=O)CN(C)C(=O)[C@H](Cc1ccccc1)NC(=O)[C@H](CO)NC(=O)[C@H](CO)NC(=O)[C@H](CCCNC(=N)N)NC(=O)[C@H](CCC(N)=O)NC(=O)[C@H](CC(C)C)NC(=O)[C@H](Cc1ccccc1)NC(=O)[C@H](CCCC(=O)O)NC(=O)[C@H](C)NC(=O)[C@H](CC(C)C)NC(=O)[C@H](CCCNC(=N)N)NC(=O)[C@H](CCC(N)=O)NC(=O)[C@@H](NC(=O)[C@H](C)NC(=O)[C@@H]1CCCCNC(=O)C[C@H](NC(=O)[C@H](CCCCN)NC(=O)CC[C@H](NC(=O)CCCCCCCCCCCCCCCCCCC(=O)O)C(=O)O)C(=O)NCC(=O)N[C@@H]([C@@H](C)O)C(=O)N[C@@H](C)C(=O)N[C@@H]([C@@H](C)O)C(=O)N1)[C@@H](C)O

hAMYR3 EC50 [nM] (cAMP formation, 1321N1 cells expressing hAMYR3) [1]: 0.024 nM
hCT-R EC50 [nM] (cAMP formation, 1321N1 cells expressing hCT-R) [2]: 0.095 nM
B2: Compound 41 (peptide)
peptide: {C20 diacid-γGlu}-RDGTATKATQRLADFLQRSSF[Sar]A[NMeI]LSSTEVGSNT[Hyp]-NH2
modifications: lactam 2-7
SMILES: CC[C@H](C)[C@@H](C(=O)N[C@@H](CC(C)C)C(=O)N[C@@H](CO)C(=O)N[C@@H](CO)C(=O)N[C@H](C(=O)N[C@@H](CCC(=O)O)C(=O)N[C@H](C(=O)NCC(=O)N[C@@H](CO)C(=O)N[C@@H](CC(N)=O)C(=O)N[C@H](C(=O)N1C[C@H](O)C[C@H]1C(N)=O)[C@@H](C)O)C(C)C)[C@@H](C)O)N(C)C(=O)[C@H](C)NC(=O)CN(C)C(=O)[C@H](Cc1ccccc1)NC(=O)[C@H](CO)NC(=O)[C@H](CO)NC(=O)[C@H](CCCNC(=N)N)NC(=O)[C@H](CCC(N)=O)NC(=O)[C@H](CC(C)C)NC(=O)[C@H](Cc1ccccc1)NC(=O)[C@H](CC(=O)O)NC(=O)[C@H](C)NC(=O)[C@H](CC(C)C)NC(=O)[C@H](CCCNC(=N)N)NC(=O)[C@H](CCC(N)=O)NC(=O)[C@@H](NC(=O)[C@H](C)NC(=O)[C@@H]1CCCCNC(=O)C[C@H](NC(=O)[C@H](CCCNC(=N)N)NC(=O)CC[C@H](NC(=O)CCCCCCCCCCCCCCCCCCC(=O)O)C(=O)O)C(=O)NCC(=O)N[C@@H]([C@@H](C)O)C(=O)N[C@@H](C)C(=O)N[C@@H]([C@@H](C)O)C(=O)N1)[C@@H](C)O

hAMYR3 EC50 [nM] (cAMP formation, 1321N1 cells expressing hAMYR3) [1]: 0.031 nM
hCT-R EC50 [nM] (cAMP formation, 1321N1 cells expressing hCT-R) [2]: 0.116 nM
B3: Compound 37 (peptide)
peptide: {C20 diacid-γGlu}-EDGTATKATERLA[Aad]FLQRSSF[Sar]A[NMeI]LSSTEVGSNT[Hyp]-NH2
modifications: lactam 2-7
SMILES: CC[C@H](C)[C@@H](C(=O)N[C@@H](CC(C)C)C(=O)N[C@@H](CO)C(=O)N[C@@H](CO)C(=O)N[C@H](C(=O)N[C@@H](CCC(=O)O)C(=O)N[C@H](C(=O)NCC(=O)N[C@@H](CO)C(=O)N[C@@H](CC(N)=O)C(=O)N[C@H](C(=O)N1C[C@H](O)C[C@H]1C(N)=O)[C@@H](C)O)C(C)C)[C@@H](C)O)N(C)C(=O)[C@H](C)NC(=O)CN(C)C(=O)[C@H](Cc1ccccc1)NC(=O)[C@H](CO)NC(=O)[C@H](CO)NC(=O)[C@H](CCCNC(=N)N)NC(=O)[C@H](CCC(N)=O)NC(=O)[C@H](CC(C)C)NC(=O)[C@H](Cc1ccccc1)NC(=O)[C@H](CCCC(=O)O)NC(=O)[C@H](C)NC(=O)[C@H](CC(C)C)NC(=O)[C@H](CCCNC(=N)N)NC(=O)[C@H](CCC(=O)O)NC(=O)[C@@H](NC(=O)[C@H](C)NC(=O)[C@@H]1CCCCNC(=O)C[C@H](NC(=O)[C@H](CCC(=O)O)NC(=O)CC[C@H](NC(=O)CCCCCCCCCCCCCCCCCCC(=O)O)C(=O)O)C(=O)NCC(=O)N[C@@H]([C@@H](C)O)C(=O)N[C@@H](C)C(=O)N[C@@H]([C@@H](C)O)C(=O)N1)[C@@H](C)O

hAMYR3 EC50 [nM] (cAMP formation, 1321N1 cells expressing hAMYR3) [1]: 0.008 nM
hCT-R EC50 [nM] (cAMP formation, 1321N1 cells expressing hCT-R) [2]: 0.028 nM
B4: Compound 40 (peptide)
peptide: {C20 diacid-γGlu}-RDGTATKATQRLA[Aad]FLQRSSF[Sar]A[NMeI]LSSTEVGSNT[Hyp]-NH2
modifications: lactam 2-7
SMILES: CC[C@H](C)[C@@H](C(=O)N[C@@H](CC(C)C)C(=O)N[C@@H](CO)C(=O)N[C@@H](CO)C(=O)N[C@H](C(=O)N[C@@H](CCC(=O)O)C(=O)N[C@H](C(=O)NCC(=O)N[C@@H](CO)C(=O)N[C@@H](CC(N)=O)C(=O)N[C@H](C(=O)N1C[C@H](O)C[C@H]1C(N)=O)[C@@H](C)O)C(C)C)[C@@H](C)O)N(C)C(=O)[C@H](C)NC(=O)CN(C)C(=O)[C@H](Cc1ccccc1)NC(=O)[C@H](CO)NC(=O)[C@H](CO)NC(=O)[C@H](CCCNC(=N)N)NC(=O)[C@H](CCC(N)=O)NC(=O)[C@H](CC(C)C)NC(=O)[C@H](Cc1ccccc1)NC(=O)[C@H](CCCC(=O)O)NC(=O)[C@H](C)NC(=O)[C@H](CC(C)C)NC(=O)[C@H](CCCNC(=N)N)NC(=O)[C@H](CCC(N)=O)NC(=O)[C@@H](NC(=O)[C@H](C)NC(=O)[C@@H]1CCCCNC(=O)C[C@H](NC(=O)[C@H](CCCNC(=N)N)NC(=O)CC[C@H](NC(=O)CCCCCCCCCCCCCCCCCCC(=O)O)C(=O)O)C(=O)NCC(=O)N[C@@H]([C@@H](C)O)C(=O)N[C@@H](C)C(=O)N[C@@H]([C@@H](C)O)C(=O)N1)[C@@H](C)O

hAMYR3 EC50 [nM] (cAMP formation, 1321N1 cells expressing hAMYR3) [1]: 0.06 nM
hCT-R EC50 [nM] (cAMP formation, 1321N1 cells expressing hCT-R) [2]: 0.114 nM
B5: Compound 38 (peptide)
peptide: {C20 diacid-γGlu}-RDGTATKATERLA[Aad]FLQRTTF[Sar]A[NMeI]LSSTEVGSNT[Hyp]-NH2
modifications: lactam 2-7
SMILES: CC[C@H](C)[C@@H](C(=O)N[C@@H](CC(C)C)C(=O)N[C@@H](CO)C(=O)N[C@@H](CO)C(=O)N[C@H](C(=O)N[C@@H](CCC(=O)O)C(=O)N[C@H](C(=O)NCC(=O)N[C@@H](CO)C(=O)N[C@@H](CC(N)=O)C(=O)N[C@H](C(=O)N1C[C@H](O)C[C@H]1C(N)=O)[C@@H](C)O)C(C)C)[C@@H](C)O)N(C)C(=O)[C@H](C)NC(=O)CN(C)C(=O)[C@H](Cc1ccccc1)NC(=O)[C@@H](NC(=O)[C@@H](NC(=O)[C@H](CCCNC(=N)N)NC(=O)[C@H](CCC(N)=O)NC(=O)[C@H](CC(C)C)NC(=O)[C@H](Cc1ccccc1)NC(=O)[C@H](CCCC(=O)O)NC(=O)[C@H](C)NC(=O)[C@H](CC(C)C)NC(=O)[C@H](CCCNC(=N)N)NC(=O)[C@H](CCC(=O)O)NC(=O)[C@@H](NC(=O)[C@H](C)NC(=O)[C@@H]1CCCCNC(=O)C[C@H](NC(=O)[C@H](CCCNC(=N)N)NC(=O)CC[C@H](NC(=O)CCCCCCCCCCCCCCCCCCC(=O)O)C(=O)O)C(=O)NCC(=O)N[C@@H]([C@@H](C)O)C(=O)N[C@@H](C)C(=O)N[C@@H]([C@@H](C)O)C(=O)N1)[C@@H](C)O)[C@@H](C)O)[C@@H](C)O
